Data on three molecules can be found in patent US20190083609A1, “TOFACITINIB AS VACCINATION IMMUNE MODULATOR” (HELMOLTZ ZENTRUM MÜNCHEN - DEUTSCHES FORSCHUNGSZENTRUM FÜR …, priority 2016, published 2019).

The test system of one data set is human naive CD4+ T cells. Nature of the data set: Differentiation of human naive CD4+ T cells into FOXP3+ CD4+ T cells (flow cytometry). In kind it is cell-based. Conditions: for increase of the percentage of FOXP3 expressing cells: average of 3 donors versus polarization control; for FOXP3 producing cells within the living CD4+ T cell population: range of 3 donors, control 17.7-43.6%, 5 days. As to the method: For the differentiation of human naive CD4^+ T cells into FOXP3^+ CD4^+ T cells, human peripheral blood mononuclear cells were isolated from heparinized whole blood by standard density gradient centrifugation (Lymphoprep, Axis Shield, Oslo, Norway). Naive CD4^+ T cells were isolated using the Naive CD4^+ T cell Kit II (Miltenyi Biotec, Bergisch Gladbach, Germany) and by additional depletion of CD45RO^+ cells (CD45RO microbeads, Miltenyi Biotec). Cells were cultured in RPMI 1640 (Thermo Fisher Scientific, Waltham, Mass. USA) complete (10% FCS, Biochrom, Merck, Berlin, Germany; 2 mM L-glutamine, 100 U/mL Penicillin/Streptomycin, Thermo Fisher Scientific) in 24-well plates at a concentration of 1×10^6 cells/mL at 37° C. After isolation, cells were stimulated with plate-bound anti-CD3 (10 μg/mL; clone UCHT1, BD Biosciences) and 2 μg/mL anti-CD28 (clone CD28.2, BD Biosciences, 2 μg/mL) in solution and cultured for five days. To induce FOXP3 expression, the culture medium was supplemented with 50 U/mL rIL-2 (Novartis, Nurnberg, Germany) and 5 ng/mL TGF-01 (Promokine). Beneath this control, cells were cultured in the presence of different concentrations of Tofacitinib, Rapamycin (Sigma-Aldrich) and Cyclosporine A (Sigma-Aldrich). After three days of culture, half of the medium was removed and replaced by fresh RPMI 1640 complete, supplemented with the same doses of cytokines and agents as at day 0.
After five days of culture, the cells were washed with ice-cold PBS and stained with LIVE/DEAD Fixable Aqua Dead Cell Stain Kit (Thermo Fisher Scientific) according to the manufacturer's protocol. Moreover the cells were stained 1:300 with anti-CD4-Alexa Flour700 (BioLegend) and 1:100 with anti-FOXP3-eFlour450 (eBiosciences, affymetrix, Frankfurt am Main, Germany) by using the FOXP3/Transcription Factor Staining Buffer Set (eBiosciences, affymetrix) according to manufacturer's protocol. The acquisition of cells was performed with BD FACSDIVA 7.0 on a BD
LSR Fortessa (BD Biosciences). Data were analyzed with the software FlowJo (Tree Star, Ashland, Oreg.), the lymphocyte population was gated on CD4^+ cells and dead cells were excluded from the analysis.
For orientation: A flow cytometer gives signals particle by particle.

Data set [1] has as its system T cells (total splenocytes from wild type mice). Nature of the data set: T cell stimulation in cell culture (viable cells by CellTiter-Glo). It is filed as cell-based, mouse. Conditions: Tofacitinib 50, 150, 500 ng/ml; IL-2/anti-CD3 low and high stimulation; 4 days. (ATP-based viability assays read luminescence as a measure of living cells.)
Description: (§2) For the T and B cell stimulation spleen cell from wild type mice were isolated and cells were cultivated in 200 μl/well in RPMI complete in cell culture plates (100,000 cells/well). For T cell stimulation total splenocytes were incubated 4 days with 1 ng/ml II-2 and 1 pg/ml anti-CD3 (Low) or 5 ng/ml II-2 and 10 pg/ml anti-CD3 (High) and three varying concentrations of Tofacitinib 50 ng/ml, 150 ng/ml and 500 ng/ml. For B cell stimulation cells were stimulated 8 days by incubation with 1 pg/ml anti-CD40 and 1L4 1 ng/ml (Low) and with 1 pg/ml anti-CD40 and 5 ng/ml (High) and three varying concentrations of Tofacitinib 50 ng/ml, 150 ng/ml and 500 ng/ml. The number of viable cells was determined by CellTiter-Glo Assay (Promega) and IgE concentration in the supernatant was measured by ELISA.
Data set [2] relates to B cells (spleen cells from wild type mice). The experiment in a line: B cell stimulation in cell culture (CellTiter-Glo; IgE ELISA of supernatant). In kind it is cell-based, mouse. The note with it: Tofacitinib 50, 150, 500 ng/ml, 8 days.
Description: as §2
The conditions of data set [3]: humans; cited from earlier work.
Data set [4] concerns OVA-allergic mice. Nature of the data set: BAL cell infiltration by flow cytometry in OVA allergic airway inflammation / ASIT model. In kind it is in vivo, mouse. As to the method:
For allergic sensitization and allergen-challenge, mice were treated twice by intraperitoneal injection of […] OVA (chicken ovalbumin, Sigma, Germany) and 0.5 mg aluminum hydroxide (alum; 40 mg magnesium/40 mg alum per ml; inject® ThermoFischer, Rockford, USA) in 200 μl phosphate buffered saline (PBS) at day (D) 1 and D-7 as previously described (Aguilar-Pimentel J A, Alessandrini F, Huster K M, Jakob T, Schulz H, Behrendt H, et al. Specific CD8 T cells in IgE-mediated allergy correlate with allergen dose and allergic phenotype, Am J Respir Crit Care Med 2010; 181:7-16, and Fuchs H, Gailus-Durner V, Adler T, Aguilar-Pimentel J A, Becker L, Calzada-Wack J, et al. Mouse phenotyping, Methods 2011; 53:120-35). […]
Four experimental groups of mice each group consisting of 14 mice were analyzed in parallel (FIGS. 1 and 2): […]
Flow cytometry was performed to quantify cell surface markers of BAL cells using the following monoclonal antibodies: anti-CD8a, anti-Lytic, anti-CD4, anti-CD62L, anti-CD3, anti-CD25, anti- GO, anti-CD19, anti-CD11 b, anti-CD11 c, and anti-MHC-II (Fuchs H, Gailus-Durner V, Adler T, Aguilar-Pimentel J A, Becker L, Calzada-Wack J, et al. Mouse phenotyping, Methods 2011; 53:120-35). Data were acquired using a LSRII flow cytometer (BD Bioscience) and further analyzed with FACSDiVa (BD Bioscience) and Flowjo V.7.2.2 (Tree star, Ashland, USA) software. […]

The subject of data set [5] is OVA-allergic mice. Nature of the data set: Plasma immunoglobulins (total IgE ELISA, IgG1 MSD) after challenge in OVA allergic airway inflammation / ASIT model. It is filed as in vivo, mouse. The procedure:
(§1) For allergic sensitization and allergen-challenge, mice were treated twice by intraperitoneal injection of […] OVA (chicken ovalbumin, Sigma, Germany) and 0.5 mg aluminum hydroxide (alum; 40 mg magnesium/40 mg alum per ml; inject® ThermoFischer, Rockford, USA) in 200 μl phosphate buffered saline (PBS) at day (D) 1 and D-7 as previously described (Aguilar-Pimentel J A, Alessandrini F, Huster K M, Jakob T, Schulz H, Behrendt H, et al. Specific CD8 T cells in IgE-mediated allergy correlate with allergen dose and allergic phenotype, Am J Respir Crit Care Med 2010; 181:7-16, and Fuchs H, Gailus-Durner V, Adler T, Aguilar-Pimentel J A, Becker L, Calzada-Wack J, et al. Mouse phenotyping, Methods 2011; 53:120-35). Subsequently, mice were challenged by inhalative exposure to OVA aerosol (1% in PBS) for 10 min once a day at D-49, 52 and 55. 24 h after the last challenge (D-56) blood samples were collected and animals sacrificed to obtain bronchoalveolar lavage (BAL) samples.
For allergen-specific-immunotherapy (ASIT), animals were treated by subcutaneous injection of 1 mg OVA D-22, and 0.5 mg OVA D-29. For treatment with Tofacitinib, two doses per day were administrated on D-20 to D-24, and D-27 to D-31. […]
In general terms: An ELISA detects its analyte on a solid surface through an enzyme-linked reagent.

In data set [6] the test system is OVA-allergic mice. The experiment in a line: Cytokine profile in BAL fluid (MSD multiplex) in OVA allergic airway inflammation / ASIT model. In kind it is in vivo, mouse. The procedure: as §1
For allergen-specific-immunotherapy (ASIT), animals were treated by subcutaneous injection of 1 mg OVA D-22, and 0.5 mg OVA D-29. For treatment with Tofacitinib, two doses per day were administrated on D-20 to D-24, and D-27 to D-31.
Flow cytometry was performed to quantify cell surface markers of BAL cells using the following monoclonal antibodies: anti-CD8a, anti-Lytic, anti-CD4, anti-CD62L, anti-CD3, anti-CD25, anti- GO, anti-CD19, anti-CD11 b, anti-CD11 c, and anti-MHC-II (Fuchs H, Gailus-Durner V, Adler T, Aguilar-Pimentel J A, Becker L, Calzada-Wack J, et al. Mouse phenotyping, Methods 2011; 53:120-35). Data were acquired using a LSRII flow cytometer (BD Bioscience) and further analyzed with FACSDiVa (BD Bioscience) and Flowjo V.7.2.2 (Tree star, Ashland, USA) software. Cytokines from BAL were analyzed by a multiplex measurement of proinflammatory cytokines from Meso Scale Discovery electrochemiluminescence assay (MSD, USA).

Data set [7] deals with OVA-allergic mice. The experiment in a line: Systemic (plasma) cytokine profile in OVA allergic airway inflammation / ASIT model. It is filed as in vivo, mouse. Conditions: after OVA-aerosol challenge. As to the method: as §1, with “samples. […]” for “samples.”
Mouse blood samples were collected before and after challenge as previously described (Aguilar-Pimentel J A, Alessandrini F, Huster K M, Jakob T, Schulz H, Behrendt H, et al. Specific CD8 T cells in IgE-mediated allergy correlate with allergen dose and allergic phenotype, Am J Respir Crit Care Med 2010; 181:7-16; Fuchs H, Gailus-Durner V, Adler T, Aguilar-Pimentel J A, Becker L, Calzada-Wack J, et al. Mouse phenotyping, Methods 2011; 53:120-35 and Fulton R J, McDade R L, Smith P L, Kienker L J, Kettman J R, Jr. Advanced multiplexed analysis with the FlowMetrix system, Clin Chem 1997; 43:1749-56) by puncturing the retro-orbital plexus (Li-heparin-coated tubes, KADE, Numbrecht, Germany) under isoflurane anesthesia. […] Plasma total IgE was measured using a classical immunoassay isotope-specific sandwich ELISA. […] Signal intensities of labeled total murine IgE were measured at 450 nm in a standard microwell ELISA reader and results reported in ng/ml based on a standard curve of purified IgE. […]

As to `CO[C@H]1C[C@@H]2CC[C@@H](C)[C@@](O)(O2)C(=O)C(=O)N2CCCC[C@H]2C(=O)O[C@H]([C@H](C)C[C@@H]2CC[C@@H](O)[C@H](OC)C2)CC(=O)[C@H](C)/C=C(\C)[C@@H](O)[C@@H](OC)C(=O)[C@H](C)C[C@H](C)/C=C/C=C/C=C/1C` [Rapamycin], the “FOXP3 expression relative to control” value in the data set with human naive CD4+ T cells (concentration not given) was 1.3 fold.

For the molecule `C[C@@H]1CCN(C(=O)CC#N)C[C@@H]1N(C)c1ncnc2[nH]ccc12` [Tofacitinib, 3-((3R, 4R)-4-methyl-3-[methyl-(7H-pyrrolo[2,3-d]pyrimidin-4-yl)-amino]-piperidin-1-yl)-3-oxopropionitrile], the “proliferation of T cells” value in data set [1] was “significantly decreased”. Besides, in data set [2] (anti-CD40/IL4 low and high stimulation), the “proliferation of B cells” value is “significantly decreased”. For the same molecule, in data set [2] (anti-CD40/IL4 stimulation, supernatant ELISA), the “IgE production by B cells” value was “decreased”. Moreover, the “increase of the percentage of FOXP3 expressing cells” value with human naive CD4+ T cells (0.1 μM) is given as “about 2.4 (+/−0.7) fold”; in the data set on human naive CD4+ T cells (1 μM) it was ~2.5 (+/−1.3) fold. Also, the “FOXP3 producing cells within the living CD4+ T cell population” value with human naive CD4+ T cells (0.1 μM) was 57.2-77.1%; in the data set on human naive CD4+ T cells (1 μM) it was 51.1-70.6%. Also, the FOXP3-enhancing effect entry in the data set with human naive CD4+ T cells (10 μM) is “diminished”. In the data set with human naive CD4+ T cells (10 μM, data not shown), the cytotoxicity result was “induced cytotoxicity”. The “mean terminal plasma half-life” value in data set [3] was 3.2 h.

B1: OVA-ASIT: allergen-specific immunotherapy: subcutaneous injection of chicken ovalbumin (OVA) in OVA-sensitized mice (protein, UniProt P01012 2-386, looked up)
Ovalbumin: GSIGAASMEFCFDVFKELKVHHANENIFYCPIAIMSALAMVYLGAKDSTRTQINKVVRFDKLPGFGDSIEAQCGTSVNVHSSLRDILNQITKPNDVYSFSLASRLYAEERYPILPEYLQCVKELYRGGLEPINFQTAADQARELINSWVESQTNGIIRNVLQPSSVDSQTAMVLVNAIVFKGLWEKAFKDEDTQAMPFRVTEQESKPVQMMYQIGLFRVASMASEKMKILELPFASGTMSMLVLLPDEVSGLEQLESIINFEKLTEWTSSNVMEERKIKVYLPRMKMEEKYNLTSVLMAMGITDVFSSSANLSGISSAESLKISQAVHAAHAEINEAGREVVGSAEAGVDAASVSEEFRADHPFLFCIKHIATNAVLFFGRCVSP
On to B1, for which the “suppression of total broncho-alveolar lavage cell infiltration” value in the data set with OVA-allergic mice [4] (compared to OVA-allergic mice, BAL 24 h after last challenge (D-56)) was 88%. Also, the “eosinophil BAL cell infiltration” value in the data set on OVA-allergic mice [4] (median [1st, 3rd quantile], OVA-allergic mice 81%, BAL at D-56) is reported as 63.18%. Further, the “total IgG1 levels” value with OVA-allergic mice [5] (median [quantiles], OVA-allergic mice 0.8267 mg/ml) turned out to be 1.936 mg/mL. Besides, in the data set on OVA-allergic mice [5] (versus OVA-allergic mice), the “reduction of total IgE-levels” value is 43.5%. Also, in the data set with OVA-allergic mice [6] (barely detectable), the “IFN-γ in BAL fluid” value is recorded as “marginally reduced” and the “IL-2 in BAL fluid” value is on record as “marginally reduced”. Further, in the data set on OVA-allergic mice [6] (mouse, in vivo), the “IL-5 secretion in BAL” value was “increase” and the “secretion of Th2-cytokine IL-4 in BAL” value was “reduced”. For the same molecule, in the data set with OVA-allergic mice [6] (versus OVA-allergic mice), the “inhibition of IL-1 beta secretion in BAL fluid” value turned out to be 80%, the “inhibition of IL-6 secretion in BAL fluid” value was found to be 82%, the “inhibition of TNF-a secretion in BAL fluid” value worked out at 84% and the “inhibition of chemokine CXCL1 in BAL fluid” value was found to be 21%. Moreover, in the data set with OVA-allergic mice [7], the “effects on IL-2 plasma levels” value was “no significant effects”, the “inhibition of IL-1beta plasma levels” value came out at 41% and the “reduction of IL-6 plasma levels” value came out at 44%.
